Laboratory results taken from US8927280B2, “Compositions and methods for promoting the generation of definitive endoderm” (President and Fellows of Harvard College, priority 2009, dated 2015).

Columns and labels:
[1] = system: endoderm derived from Pdx1-GFP mouse ES cells; experiment: Differentiation of induced endoderm into Pdx1+ pancreatic progenitors; assay type: cell-based
Procedure: (§1) Mouse ES cells were routinely cultured on irradiated CF-1 MEF feeder cells in DMEM (Gibco) media supplemented with 15% Fetal Bovine Serum (HyClone FBS, Invitrogen), 2 mM L-glutamine (L-Glu, Gibco), 1.1 mM 2-mercaptoethanol (Gibco), 1 mM nonessential amino acids (Gibco), 1× penicillin/streptomycin (P/S, Gibco) and 5×10^5 units LIF (Chemicon). Cells were passaged at the ratio of 1:6-1:12 every 2-3 days using 0.25% trypsin. To generate the starting population, mouse ES cells was cultured on MEF feeder cells until they reached 80-90% confluence. Prior to differentiation, ES cells were passaged onto gelatin coated plates for 30 min to remove MEFs. MEF depleted ES cells were seeded at 2500 cells per cm^2 on gelatinized plates. After overnight culture, cells were exposed to 25 ng/ml Wnt3a (R&D Systems)+50 ng/ml recombinant Activin A (R&D Systems) or 500 ng/ml Nodal (R&D Systems) in DMEM (Gibco) supplemented with 1×L-Glu and 0.2% FBS (Gibco) for 1 day, then Activin A or Nodal in the same media and cultured for 4-6 days to induce endoderm differentiation. For the chemical inductions, compounds IDE1 and IDE2 (provided by Stuart L. Schreiber) were added at 5 μM concentration in the differentiation media. For pancreatic progenitors induction, the cells were transferred to 50 ng/ml FGF10 (R&D Systems), 0.75 μM KAAD-cyclopamine (Calbiochem) and 2 μM RA (Sigma) or Indolactam V 330 nM (Axxora) in DMEM supplemented with 1×L-Glu, 1×PS, 1×B27 (Invitrogen) for 4 days. SHB431542 was purchased from Sigma. All stock compounds were made with either DMSO or PBS
(§2) Cells were fixed in 4% paraformaldehyde (Sigma) in PBS for 20 min at 4° C. followed by a wash with PBS. Cells were blocked with 10% donkey serum (Jackson Immunoresearch) in PBS/0.1% Triton X and incubated with primary antibodies overnight at 4° C. Secondary antibodies were incubated for 1 h at room temperature. The following antibodies and dilutions were used: goat anti-SOX17, (1:500 R&D systems); rabbit anti-PDX1 (1:200, Chemicon), rabbit anti-FoxA2 (1:500; Upstate), rabbit anti-Dab2 (1:200, Santa Cruz), rabbit anti-SPARC (1:200, Santa Cruz,), mouse anti-AFP (1:100, Sigma), anti-Gata6 (1:50, Santa Cruz Biotech), goat anti-HNF6 (1:200, Santa Cruz Biotech), rabbit anti-RFP/DsRed (1:300, MBL), rabbit anti-GFP (1:200, Molecular Probes). Secondary antibodies were: rhodamine Red-X-conjugated donkey anti-goat antibody, 1:200 (JIRL), Alexa-488-conjugated goat anti-mouse and Alexa-594-conjugated goat anti-rabbit antibodies (1:300, Molecular Probes). Nuclei were visualized by Hoechst 33342 (1:1000, Molecular Probes). Images were taken using an Olympus IX70 Microscope. For quantification images were analyzed for the frequency of SOX17+, FoxA2+ or Pdx1+ cells using Metamorph image analysis software (Molecular Devices) and at least 6 images per well were collected. Data were confirmed in four independent experiments.
Pancreatic progenitors appear in the pancreatic bud at E9.5 and are marked by the expression of the transcription factor Pdx1. […] Using Pdx1-GFP knock-in (Micallef et al., 2005) mouse ES cells the inventors induced definitive endoderm using either of the hit compounds and cultured cells in various conditions for additional six days.

mouse ES cells = experiment: Sox17 endoderm induction in mouse ES cell monolayer cultures; assay type: cell-based; settings: for percent of total cells Sox17/dsRed double positive: Sox17-dsRed mouse ES cells, day 6, low serum
Procedure: as §1, §2
Endoderm formation was monitored by Sox17 expression by either flow cytometry detection of Sox17/DsRed or immunofluorescence using anti-Sox17 antibodies. Cells labeled by antibody staining were quantified using Metamorph software ad percentage of total cell number (based on Hoechst 33342 nuclei staining). All conditions were tested in either tri- or quadruplicates.

Smad2 = experiment: Western blot analysis of Smad2 phosphorylation in ES cell lysates; assay type: cell-based, mouse; settings: for phosphorylation of Smad2 by IDE1 or IDE2 in the presence of the ALK4/5/7 inhibitor: mouse ES cells, co-treatment; for phosphorylation of Smad2 / activation of the TGF-β pathway: ES cell lysates, after 24 hrs or longer
Procedure: Cells were lysed in 1×RIPA lysis buffer in the presence of protease inhibitor mixture (Roche)/1% phosphatase inhibitor mixture (Roche). Proteins were separated by 10% Tris-Glycine SDS/PAGE (Bio-rad) under denaturing conditions and transferred to a nitrocellulose membrane. After blocking with 5% skim milk in PBS/0.1% Triton X, the membrane was incubated with primary antibodies against phospho-Smad2 (1:1000, Cell Signaling) overnight at 4° C. The membrane was then washed, incubated with anti-mouse/rabbit peroxidase-conjugated affinity-purified secondary antibody (1:1000, Cell Signaling) at room temperature for 1 h, and developed by SuperSignal chemiluminescence (Pierce).

[2] = system: human ES cells (HUES 4 and 8); experiment: Sox17 endoderm induction in human ES cells; assay type: cell-based
Procedure: Human embryonic stem cell lines were cultured essentially as described {Cowan, 2004 #6}. Briefly, HUES4, HUES8 and HUES9 cells are routinely cultured on irradiated CF-1 MEF feeder cells in KnockOut DMEM (Gibco) supplemented with 10% KnockOut Serum Replacement (Gibco), 10% human plasma (Invitrogen), 2 mM L-glutamine (L-Glu, Gibco), 1.1 mM 2-mercaptoethanol (Gibco), 1 mM nonessential amino acids (Gibco), 1× penicillin/streptomycin (PS, Gibco) and 10 ng/ml bFGF (Invitrogen). Cells are split at the ratio of 1:10-1:12 every 4-5 days by using 1 mg/ml collagenase type IV. To induce endoderm formation, HUES cells was cultured on MEF feeder cells till 80-90% confluent, then treated with 100 ng/ml Activin A in advanced RPMI (Gibco) supplemented with 1×L-Glu and 0.2% FBS (Gibco), or with combination of 25 ng/ml Wnt3a (R&D systems)+100 ng/ml Activin A (R&D systems) or were exposed to compounds in the same media. At days 4 and 6 of culture cells were analysed for endodermal marker expression, Sox17.
as §2

CC(C)[C@H]1C(=O)N[C@H](CO)Cc2c[nH]c3cccc(c23)N1C [Indolactam V, (2S,5S)-1,2,4,5,6,8-Hexahydro-5-(hydroxymethyl)-1-methyl-2-(1-methylethyl)-3H-pyrrolo[4,3,2-gh]-1,4-benzodiazonin-3-one]
increase of Pdx1+ cells above control treatment at day 12 ([1]; IDE1 or IDE2 followed by ILV): 10 fold
percent Pdx1-GFP expressing pancreatic progenitors at day 6 ([1]; IDE1 or IDE2 induced mouse endoderm, second step treatment): 51±7.4%
yield of pancreatic progenitors compared to a growth factor based approach ([1]; applied to IDE1 or IDE2 derived endoderm): higher yields of pancreatic progenitors
percent of total cells Pdx1+ at day 12 ([1]; cultures treated initially with IDE1 or IDE2 and followed by ILV): 50%
increase in Pdx1+ cell number compared to known published protocols ([1]; two-step treatment): 4 fold
percent of Pdx1+ cells also expressing other pancreatic progenitor markers, including HNF6 ([1]; two-step treatment): 92±5%
increase in Pdx1+ cell number compared to the control DMSO treated ([1]; two-step treatment, Pdx1 antibody staining): 10 fold
percent of cells positive with Pdx1 antibodies ([1]; two-step treatment: IDE1 and/or IDE2, then Indolactam V): 53±6.4%

NC(=O)c1ccc(-c2nc(-c3ccc4c(c3)OCO4)c(-c3ccccn3)[nH]2)cc1 [SB43125, reference compound]
induction of Sox17 protein under co-treatment of IDE1 or IDE2 with the ALK4/5/7 inhibitor (mouse ES cells; mouse ES cells): 5.6±1.3%
phosphorylation of Smad2 by IDE1 or IDE2 in the presence of the ALK4/5/7 inhibitor (Smad2): strongly attenuated
phosphorylation of Smad2 by IDE1 or IDE2 in the presence of the ALK4/5/7 inhibitor (Smad2; listed as SB431542): significantly attenuated

B1: Nodal: TGF-β family growth factor, protein inducer of endoderm (protein, UniProt Q96S42 238-347, looked up)
Nodal homolog: HHLPDRSQLCRKVKFQVDFNLIGWGSWIIYPKQYNAYRCEGECPNPVGEEFHPTNHAYIQSLLKRYQPHRVPSTCCAPVKTKPLSMLYVDNGRVLLDHHKDMIVEECGCL
percent of total cells Sox17/dsRed double positive (mouse ES cells): 45%
percent of ES cells that form (definitive) endoderm, summary statement (mouse ES cells; mouse ES cells): about 45%
phosphorylation of Smad2 / activation of the TGF-β pathway (Smad2): high level

B2: Wnt3a: Wnt growth factor family member (protein, UniProt P56704 19-352, looked up)
Protein Wnt-3a: SYPIWWSLAVGPQYSSLGSQPILCASIPGLVPKQLRFCRNYVEIMPSVAEGIKIGIQECQHQFRGRRWNCTTVHDSLAIFGPVLDKATRESAFVHAIASAGVAFAVTRSCAEGTAAICGCSSRHQGSPGKGWKWGGCSEDIEFGGMVSREFADARENRPDARSAMNRHNNEAGRQAIASHMHLKCKCHGLSGSCEVKTCWWSQPDFRAIGDFLKDKYDSASEMVVEKHRESRGWVETLRPRYTYFKVPTERDLVYYEASPNFCEPNPETGSFGTRDRTCNVSSHGIDGCDLLCCGRGHNARAERRREKCRCVFHWCCYVSCQECTRVYDVHTCK
synergy / combined effect on Sox17 induction (mouse ES cells; mouse ES cells, co-treatment): no significant effect

B3: Activin A: recombinant TGF-β family growth factor, protein inducer of endoderm (protein, UniProt P08476 311-426, looked up)
Inhibin beta A chain: GLECDGKVNICCKKQFFVSFKDIGWNDWIIAPSGYHANYCEGECPSHIAGTSGSSLSFHSTVINHYRMRGHSPFANLKSCCVPTKLRPMSMLYYDDGQNIIKKDIQNMIVEECGCS
percent of cells expressing Sox17 ([2]; HUES cells, 4 days, IDE1 100 nM, IDE2 200 nM): 64±6.3%
increase of Sox17 expression compared to the vehicle treatment ([2]; human ESC cultures, 6 days): 4 fold
percent of total cells expressing Sox17 after 6 days ([2]; human ESC cultures, 6 days): 55-65%
percent of cells expressing Pdx1 after FGF10, KAAD-cyclopamine and retinoic acid ([1]; label = inducer of the starting endoderm, mouse ES cells): 12.1±4%
percent of total cells Sox17/dsRed double positive (mouse ES cells): 45%
percent of ES cells that form (definitive) endoderm, summary statement (mouse ES cells; mouse ES cells): about 45%
% of Sox17+ cells compared to IDE1 or IDE2 at all tested time points (mouse ES cells; mouse ES cells, 14 days of treatment): significant but lower % of Sox17+ cells
percentage of cells expressing Sox17 at day 2 of treatment (mouse ES cells; mouse ES cells, day 2): 13%
percentage of cells expressing Sox17 at day 4 of treatment (mouse ES cells; mouse ES cells, day 4): 28%
phosphorylation of Smad2 / activation of the TGF-β pathway (Smad2): high level
